Laboratory results published in publication PMC10783506.

How the values were obtained:
[1] = tested on: LGP2 (insect-cell expressed) (Homo sapiens); test: fluorescence polarization; conditions: Buffer A: 50 mM MOPS pH 7.4, 5 mM MgCl2, 5 mM DTT, 0.05 mM BSA, 0.01% Tween20, 0-100 mM NaCl (or KCl), with or without ATP, EMSA at 4 C, stopped-flow at 25 C …
RIG-I = test: EMSA; conditions: 60 nM protein, 20 nM RNA, monovalent streptavidin; mainly monomer; m7G cap and 2'-O-methyl on first nucleotide (Cap1); biotin at distal end; Buffer A: 50 mM MOPS pH 7.4, 5 mM MgCl2, 5 mM DTT, 0.05 mM BSA, 0.01% Tween20; 0-100 mM NaCl (or KCl), with or without ATP; EMSA at 4 C, stopped-flow at 25 C …

3'-overhang HP RNA gave a binding signal (fold Kd vs 5'OH blunt HP) ([1]; 100 mM KCl) of 10.

In the case of 5'ppp blunt HP RNA, the Kd ([1]; 5'ppp) is reported as 10 nM.

For 5'OH blunt HP RNA, the Kd ([1]; 5'OH) was 10 nM.

stem ds26 RNA gave a Kd ([1]; 0 mM NaCl, ATP without effect, 17 bp dsRNA flanked by 4 bp dsDNA ends) of 80 nM.

With Cap1 ds27 RNA-biotin the binding signal (RIG-I) was 50 % RNA bound.

Work on ds16 DNA yielded a Kd ([1]; 0 mM NaCl, ATP had little effect on Kd) of 200 nM.
